Test results: paper PMC2871490 (The Journal of Biological Chemistry, 2010)

B1: GST-Daam1 NT (domain or fragment)
chain: MEPALPMPPVEELDVMFSELVDELDLTDKHREAMFALPAEKKWQIYCSKKKDQEENKGATSWPEFYIDQLNSMAARKSLLALEKEEEEERSKTIESLKTALRTKPMRFVTRFIDLDGLSCILNFLKTMDYETSESRIHTSLIGCIKALMNNSQGRAHVLAHSESINVIAQSLSTENIKTKVAVLEILGAVCLVPGGHKKVLQAMLHYQKYASERTRFQTLINDLDKSTGRYRDEVSLKTAIMSFINAVLSQGAGVESLDFRLHLRYEFLMLGIQPVIDKLREHENSTLDRHLDFFEMLRNEDELEFAKRFELVHIDTKSATQMFELTRKRLTHSEAYPHFMSILHHCLQMPYKRSGNTVQYWLLLDRIIQQIVIQNDKGQDPDSTPLENFNIKNVVRMLVNENEVKQWKEQAEKMRKEHNELQQKLEKKERECDAKT
B2: His6-Fli-I G4–6 (domain or fragment)
chain: KKDQMKADLTALFLPRQPPMSLAEAEQLMEEWNEDLDGMEGFVLEGKKFARLPEEEFGHFYTQDCYVFLCRYWVPVEYEEEEKKEDKEEKAEGKEGEEATAEAEEKQPEEDFQCIVYFWQGREASNMGWLTFTFSLQKKFESLFPGKLEVVRMTQQQENPKFLSHFKRKFIIHRGKRKAVQGAQQPSLYQIRTNGSALCTRCIQINTDSSLLNSEFCFILKVPFESEDNQGIVYAWVGRASDPDEAKLAEDILNTMFDTSYSKQVINEGEEPENFFWVGIGAQKPYDDDAEYMKHTRLFRCSNEKGYFAVTEKCSDFCQDDLADDDIMLLDNGQEVYMWVGTQTSQVEIKLSLKACQVYIQHMRSKEHERPRRLRLVRKGNEQHAFTRCFHAWSAFCKALA
B3: GST-Fli-I G4–6 (domain or fragment)
chain: B2 chain
B4: GST-Daam1 DAD (domain or fragment)
chain: NMRKKKEEEERRARMEAQLKEQRERERKMRKAKENSEESGEFDDLVSALRSGEVFDKDLSKLKRNRKRITNQMTDSSRERPITKLNF

Legend:
Experiment in all cases: pull-down
His6-Daam1 CT = His6-Daam1 CT (human, UniProt Q9Y4D1 490-1078)
GST-Daam1 CT L1040A = GST-Daam1 CT L1040A (human, UniProt Q9Y4D1 490-1078, L1040A)
GST-Daam1 CT WT = GST-Daam1 CT WT (human, UniProt Q9Y4D1 490-1078)
His6-Daam1 NT = biological target: T1, His6-Daam1 NT (human, UniProt Q9Y4D1 41-477)
T1 sequence: B1 chain

His6-Fli-I G1–6 = biological target: T2, His6-Fli-I G1–6 (human, UniProt Q13045 461-1269)
T2 sequence: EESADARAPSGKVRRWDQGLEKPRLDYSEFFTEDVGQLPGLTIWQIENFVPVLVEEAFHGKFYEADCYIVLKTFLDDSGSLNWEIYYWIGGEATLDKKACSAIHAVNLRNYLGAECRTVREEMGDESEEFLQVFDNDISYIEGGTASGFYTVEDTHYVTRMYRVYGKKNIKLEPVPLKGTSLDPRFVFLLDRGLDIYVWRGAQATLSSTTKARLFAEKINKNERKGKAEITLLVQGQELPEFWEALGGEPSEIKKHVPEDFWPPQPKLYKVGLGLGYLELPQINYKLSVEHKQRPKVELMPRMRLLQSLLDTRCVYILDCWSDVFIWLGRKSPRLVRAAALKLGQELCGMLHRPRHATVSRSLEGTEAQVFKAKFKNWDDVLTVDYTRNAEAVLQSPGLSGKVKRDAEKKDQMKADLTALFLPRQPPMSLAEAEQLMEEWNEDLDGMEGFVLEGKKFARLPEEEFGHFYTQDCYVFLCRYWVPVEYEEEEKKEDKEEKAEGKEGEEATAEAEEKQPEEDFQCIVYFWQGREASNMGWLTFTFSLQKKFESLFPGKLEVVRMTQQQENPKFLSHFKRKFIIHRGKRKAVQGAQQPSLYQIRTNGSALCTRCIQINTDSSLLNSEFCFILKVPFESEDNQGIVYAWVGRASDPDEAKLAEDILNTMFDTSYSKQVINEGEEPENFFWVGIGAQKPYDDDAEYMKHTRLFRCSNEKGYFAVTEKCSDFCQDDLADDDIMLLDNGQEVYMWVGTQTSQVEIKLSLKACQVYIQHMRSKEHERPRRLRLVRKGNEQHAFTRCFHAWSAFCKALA

| Binder | binding result (His6-Daam1 CT) | binding result (GST-Daam1 CT L1040A) | binding result (GST-Daam1 CT WT) | binding result (His6-Daam1 NT) | binding result (His6-Fli-I G1–6) |
| --- | --- | --- | --- | --- | --- |
| B1 | binds | – | – | – | – |
| B2 | binds | binds | binds | – | – |
| B3 | binds | – | – | – | – |
| B4 | – | – | – | binds | binds |
